In the RNAGym collection of RNA variant scans (doi:10.1073/pnas.2313332121):

B1: TPR t1 (parent)
chain: GACCAAUCUGCCCUCAGAGCUCGAGAACAUCUUCGGAUGCAGAGGAGGCAGGCUUCGGUGGCGCGAUAGCGCCAACGUCCUCAACCUCCAAUGCAUCCCACCACAUGAUGAUGCCUGAAGAGCCUUGGUUUUUUG

Variants of: B1
Test: polymerase ribozyme fitness, log enrichment relative to wild type (log ratio); higher = more active; in vitro selection for triplet polymerase activity
How it was run: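 The heterodimeric triplet polymerase ribozyme's subunits were each mutagenized into PCR-built libraries and transcribed. Every library was selected once, in triplicate, by annealing with a biotinylated primer, the partner subunit and triplets, incubating frozen at −7 °C, gel-excising extended constructs, capturing on streptavidin beads and running RT-PCR. Input and output libraries were Illumina-sequenced, with genotypes kept only at ≥10 input reads and ≥1 read per output. Fitness, from inverse-variance-weighted replicate averages, is the base-2 logarithm of genotype enrichment over wild-type enrichment.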

Row | Variant | polymerase ribozyme fitness (log ratio)
1 | A29C G93A | -3.03
2 | U9G G63U | -0.815
3 | G42C U87G | -1.08
4 | C72U U130C | -0.237
5 | C3A G93A A95G | -2.11
6 | G39U U78C | -0.554
7 | C49A C104G A111C | -6.5
8 | U33A G63U | -6.72
9 | G42U C49A G69U | 0.552
10 | A16G A37G | -1.71
11 | C40G G45U A90U G93U | -4.32
12 | A18U C124U | -1.01
13 | U21A A50G A95G A105C | -3.34
14 | C72U C76A | -0.968
15 | C40U G57A C85A U112A G122C C123A | -1.77
16 | U7C G17A A84U | -2.39
17 | G17A U131A | -1.99
18 | U54G A105G U112A C123G C124A U132C | -2.09
19 | C3A C62G | -2.38
20 | C13U G71U C79G U81A | -3.02
21 | G57A A103C G120C C124A | -4.81
22 | C40G A43U | -2.95
23 | G61U C123A | 0.578
24 | C3U A100C G135C | -2.44

Row | Variant | polymerase ribozyme fitness (log ratio)
25 | C15G C56U | -2.17
26 | C85A A111U | -4.18
27 | G19C U92A C114U U133A | -1.16
28 | U9G G23A C31U U38A C104A U112A A121C U126G | -6.73
29 | C72A U81A C86U U106A G128A U130A | -4.98
30 | A111C U129G | -0.988
31 | A5C | -0.52
32 | C13U C79G A83G C89G | -4.49
33 | C12G C28U C124U | -0.261
34 | U7A G45A C49G G71A C80U A84U C104U | -4.66
35 | C56G C70U U96A U132A | -3.39
36 | G45A C56U G69U G93U | -4.17
37 | G45C C101A U106C | -2.07
38 | C15A U78C C88A C102A | -5.8
39 | C62A G93A | -2.07
40 | G10C G36U A50C U78G C86A | -4.45
41 | G63A U87C | -0.482
42 | U55A A74G C82G C123G | 1.26
43 | G47A U106A U133A | -1.13
44 | C79U C114A G120C G127U | -1.06
45 | C64G | -6.67
46 | U7C A37G G57A C62U | -5.38
47 | G45U G52A U96G | -2.98
48 | U81G C82A A84C G120U | -1.07

Row | Variant | polymerase ribozyme fitness (log ratio)
49 | G48U C62U G71C U96A | -2.08
50 | C80U U131G | -0.642
51 | A37G G61A C101A G127A | -1.91
52 | C8U U106A G127U | 0.137
53 | G35U G45U G61U C97A C123G | -5.69
54 | C49G C73G | -1.7
55 | G52U C72A C85A | -1.3
56 | A46C U92C | -1.97
57 | A16U C22U C124A | -2.87
58 | C8U C53A | 0.141
59 | C22G G42U A84U C115A C124G | -3.07
60 | G39U G128U | -3.06
61 | G36A C70A C114A | -5.75
62 | G44C U92C C124A | 0.556
63 | C28G C40G G48U C53U | -3.75
64 | G44A G45U G93A | -3.07
65 | G69U U129A | -0.546
66 | C62G G135U | -2.31
67 | U9A U78A G93C C124G G128C | -2.15
68 | C62U U78C C101G A118G U133A | -2.5
69 | C56U U112C A118C | 1.53
70 | G48A A75U C79G A90U A95C G120A U129G | -6.14
71 | C53A G69U C88G U112A G122A U133C | 1.96
72 | U9C G45C U131G | -1.16

Row | Variant | polymerase ribozyme fitness (log ratio)
73 | G71C A118U | -0.826
74 | U54C G122A | -0.596
75 | U21C G71A G93A | -1.91
76 | C22U C34U C73U A83C C124G | -6.07
77 | U55G G69A | -1.67
78 | C4U A50C A74U C79G G117A | -4.91
79 | G69A C88U | -2.7
80 | C72U A83C C114U | -1.96
81 | C11G A37G C40G C72A C101U C123A | 0.0924
82 | G51C G71A C82G C85A | -4.52
83 | A18U C72U | -2.03
84 | A41G C56A G63U C70U | -2.43
85 | A18C C124G G128U | -3.83
86 | G127U U129A U130C | -1.27
87 | C40A A43U G44C G110U C114U | -5.04
88 | C34U C70U U112A G135U | -6.08
89 | C12U A18U C114A G128A U130A | -3
90 | C12U C22G C72G C104A G113C A118G U129A | -6.33
91 | C20U U78C | -1.11
92 | C49G A103U C124U | -4.18
93 | A41U C70G | -5.5
94 | U14A U54A | -2.74
95 | A46C U54A | -0.931
96 | G39A G63U | -2.24

Row | Variant | polymerase ribozyme fitness (log ratio)
97 | A83U A91C | -0.743
98 | C8A A91G | -0.00436
99 | C64U A84C | 0.992
100 | C88A C101G U116C | -2.59
101 | C72U U96C | -1.2
102 | C8G G17U G48A G57U G69U A105U | -2.21
103 | C56A U109G | -4.29
104 | A2U C49A G71A C82A G120U | -3.9
105 | C15G G71A A90G | -3.09
106 | A2G C13U A41C G48C U78G A111G | -1.71
107 | C28U A46U A74U | -3.5
108 | C40A G63U U81A U129A | -5.05
109 | G48A C56U U59C C86A C94A A111C | -5.39
110 | C20A A46U C72U U129A | -6.73
111 | G52U A84C G93C | -2.23
112 | C34A G61C | -4.99
113 | A29G U59G G60U U130G | -2.01
114 | C8A G45A | 0.134
115 | G71A G93U | -1.52
116 | U9C A16U G63C | 0.269
117 | A24C C49U C82U | -5.77
118 | G63C G93A G122A | -1.99
119 | U33G | -5.67
120 | G60U C73U U106A | -0.452

Row | Variant | polymerase ribozyme fitness (log ratio)
121 | C12A C56A C62U A91U G128C | -5.72
122 | C4A G60U G127A | -2.51
123 | A46G G57A A83G U112C | 0.022
124 | A83U C88U C101A | -1.52
125 | U9C G69A | -2.17
126 | G39U G45U C62U U112C | -0.882
127 | G48A G63C U132A | -1.12
128 | A2U C11U G63U C101G G113U C115U | -6.67
129 | A46U C73A | -1.49
130 | G39U G60C G61A A118U | -1.64
131 | G36U G44U A75G U112C U131G | -1.21
132 | A16C U33C C62G U81A A108G G120A C123G | -6.36
133 | G48U G51C A95C A111G U134A | -4.35
134 | U7C C101A | -0.57
135 | G48A G57C C115G G122A | -1.91
136 | C22U A43U C86U | -5.15
137 | C3U C8A U54A G69C | -1.46
138 | A41G A83U C99U C115A U131G | -4.22
139 | U9C G60A C80U C89U | -1.82
140 | C8G C56U C104A U129G | -1.17
141 | A6U C20G C76U G113U | -1.29
142 | A100U U116C G128U U130A | -5.48
143 | G42C G48C C79A | -6.14
144 | U9G A29G G39U U54A A83U | -3.38

Row | Variant | polymerase ribozyme fitness (log ratio)
145 | U33C G63U A111U A121C C124A | -6.83
146 | C11G C97A | -4.05
147 | C13U G120U | 0.513
148 | G39U C76G | -0.793
149 | G113U G117A | -5.13
150 | C49U U126A | -1.95
151 | A6C G44C G58A U96A | -2.15
152 | G61U C115U | -0.433
153 | A5U C72G U106C | -0.417
154 | C82A C115G U130G | -1.11
155 | A16U G69U C80G A90C | -6.49
156 | C4A G52A C73A | -2.51
157 | G35C C85A U109A C114G C124U | -4.87
158 | A6U G44U G61A A103U G122A C124G U125G | -4.72
159 | C99G | -7.03
160 | G42C U54G C88A C102A | -5.41
161 | G61A U130A | 0.0628
162 | C3U A84G G120A | -0.608
163 | A46U C64U C114U | -2.92
164 | G19C U81C C124G | -0.981
165 | C12U A41G G48A C86U | -0.927
166 | A16U G17C C73U | -3.41
167 | G45A G135U | -1.9
